Test results as given in patent US20150025225A1 (SHIONOGI, published 2015).

T1: human EL[331-459]-mouse EL-C2 tag (human/mouse chimera, UniProt Q9WVG5 21-500 (mouse entry))
T1 chain: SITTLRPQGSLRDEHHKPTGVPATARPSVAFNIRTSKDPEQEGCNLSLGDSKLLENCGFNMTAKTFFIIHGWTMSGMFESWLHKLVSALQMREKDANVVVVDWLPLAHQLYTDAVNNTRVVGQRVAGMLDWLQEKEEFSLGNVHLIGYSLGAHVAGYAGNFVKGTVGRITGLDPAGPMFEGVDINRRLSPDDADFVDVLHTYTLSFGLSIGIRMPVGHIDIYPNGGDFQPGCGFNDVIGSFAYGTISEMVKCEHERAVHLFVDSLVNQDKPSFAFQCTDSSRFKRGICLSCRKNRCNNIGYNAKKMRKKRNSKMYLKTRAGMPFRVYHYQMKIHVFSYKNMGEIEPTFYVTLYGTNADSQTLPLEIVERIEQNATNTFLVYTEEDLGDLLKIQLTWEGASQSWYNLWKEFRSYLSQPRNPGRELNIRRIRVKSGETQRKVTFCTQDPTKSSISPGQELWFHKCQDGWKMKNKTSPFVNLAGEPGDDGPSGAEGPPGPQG

T2: rabbit EL-C2 tag (rabbit)
T2 chain: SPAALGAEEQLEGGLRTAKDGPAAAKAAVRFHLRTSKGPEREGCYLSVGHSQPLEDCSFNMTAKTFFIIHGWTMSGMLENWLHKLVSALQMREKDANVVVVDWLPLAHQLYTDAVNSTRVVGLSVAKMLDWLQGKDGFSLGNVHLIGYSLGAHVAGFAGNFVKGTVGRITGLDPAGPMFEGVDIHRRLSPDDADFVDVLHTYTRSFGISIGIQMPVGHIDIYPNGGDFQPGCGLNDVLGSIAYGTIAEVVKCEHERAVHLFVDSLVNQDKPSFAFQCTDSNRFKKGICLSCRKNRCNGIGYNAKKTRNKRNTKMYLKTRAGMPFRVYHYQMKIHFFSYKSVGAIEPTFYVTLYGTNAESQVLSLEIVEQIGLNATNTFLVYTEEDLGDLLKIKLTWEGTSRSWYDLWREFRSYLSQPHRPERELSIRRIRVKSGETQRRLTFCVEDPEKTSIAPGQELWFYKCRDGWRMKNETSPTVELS

T3: cynomolgus monkey EL-C2 tag (cynomolgus monkey, UniProt Q9Y5X9 21-500 (human entry), limits assumed)
T3 chain: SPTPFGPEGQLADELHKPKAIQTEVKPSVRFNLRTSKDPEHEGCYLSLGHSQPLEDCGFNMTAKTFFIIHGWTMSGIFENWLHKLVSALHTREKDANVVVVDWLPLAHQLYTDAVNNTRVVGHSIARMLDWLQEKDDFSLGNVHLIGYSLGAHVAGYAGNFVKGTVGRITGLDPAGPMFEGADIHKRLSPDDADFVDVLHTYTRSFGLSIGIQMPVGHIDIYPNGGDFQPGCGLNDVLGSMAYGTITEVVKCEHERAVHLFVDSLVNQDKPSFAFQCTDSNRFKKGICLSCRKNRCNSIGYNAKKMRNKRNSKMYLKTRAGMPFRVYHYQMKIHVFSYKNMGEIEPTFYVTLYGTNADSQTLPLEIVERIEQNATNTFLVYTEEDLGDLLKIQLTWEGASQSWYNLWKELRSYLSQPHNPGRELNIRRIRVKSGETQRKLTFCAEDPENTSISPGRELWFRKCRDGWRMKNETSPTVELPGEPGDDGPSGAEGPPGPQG

T4: Baboon EL-C2 tag (baboon, UniProt Q9Y5X9 21-500 (human entry), limits assumed)
T4 chain: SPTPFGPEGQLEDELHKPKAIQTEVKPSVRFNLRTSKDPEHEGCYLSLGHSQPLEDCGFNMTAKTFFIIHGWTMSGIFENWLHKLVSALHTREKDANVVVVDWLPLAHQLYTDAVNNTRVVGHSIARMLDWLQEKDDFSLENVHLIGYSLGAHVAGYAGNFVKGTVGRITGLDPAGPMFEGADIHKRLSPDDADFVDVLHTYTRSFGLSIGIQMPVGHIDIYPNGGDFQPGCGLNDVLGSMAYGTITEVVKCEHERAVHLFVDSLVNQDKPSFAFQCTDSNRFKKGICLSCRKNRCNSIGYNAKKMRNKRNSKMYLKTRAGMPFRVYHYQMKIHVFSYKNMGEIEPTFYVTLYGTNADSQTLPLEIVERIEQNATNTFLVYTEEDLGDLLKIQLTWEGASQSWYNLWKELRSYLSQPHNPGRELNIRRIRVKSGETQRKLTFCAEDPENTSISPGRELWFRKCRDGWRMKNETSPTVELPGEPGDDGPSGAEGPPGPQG


How the values were obtained:
[1] = target: T1, human EL[331-459]-mouse EL-C2 tag; assay: cell-based or functional assay
rabbit EL-C2 tag = target: T2, rabbit EL-C2 tag; assay: cell-based or functional assay
[2] = target: T3, cynomolgus monkey EL-C2 tag; assay: cell-based or functional assay
Baboon EL-C2 tag [3] = target: T4, Baboon EL-C2 tag; assay: cell-based or functional assay
[4] = target: T3, cynomolgus monkey EL-C2 tag; assay: Biacore SPR; EL heparin extract captured by anti-C2-tag antibody on CM5, antibody as analyte, bivalent fit
Protocol: (§1) The binding affinities of anti-EL antibodies were measured using Biacore. Anti-C2-tag antibody was immobilized on a sensor chip CM5 (GE HealthCare) using amine-coupling and baboon EL heparin extract or cynomolgus monkey heparin extract diluted with HBS-P (GE Healthcare) was added and EL were captured on the sensor chip. Then anti-EL antibodies diluted with HBS-P were added and the binding affinities were calculated by bivalent fitting of BIAevaluation software (FIG. 9A-G).

Baboon EL-C2 tag [5] = target: T4, Baboon EL-C2 tag; assay: as above
Protocol: as §1

[6] = target: T3, cynomolgus monkey EL-C2 tag; assay: Biacore SPR; EL captured by anti-C2-tag antibody, antibody as analyte, bivalent fit; column head prints nM, kd/ka gives M
Protocol: as §1

Baboon EL-C2 tag [7] = target: T4, Baboon EL-C2 tag; assay: as above
Protocol: as §1

Neutralizing activity_IC50 [1]	Neutralizing activity_IC50 (rabbit EL-C2 tag)	Neutralizing activity_IC50 [2]	Neutralizing activity_IC50 (Baboon EL-C2 tag [3])	koff [4]	kon [4]	koff (Baboon EL-C2 tag [5])	kon (Baboon EL-C2 tag [5])	Kd [6]	Kd (Baboon EL-C2 tag [7])	Binder
5.3 nM	37 nM	4.7 nM	4.6 nM	0.00033 s⁻¹	250000 M⁻¹ s⁻¹	0.00056 s⁻¹	140000 M⁻¹ s⁻¹	1.3 nM	4 nM	47B2 antibody (antibody, IgG2a, V domains shown) VH: QVALKESGPGILQPSQTLSLTCSFSGFSLSTSGMGVGWIRQPSGKGLEWLAHIWWHGNKYYSTGLKSRLTISKDTSNNQVFLKIASVDTADTATYYCARISAGYPLDYWGQGTSVTVSS VL: DIQMTQSPSSLSASLGGKVTITCKASQDINKYIVWYQHKPGKGPRLLIHYTSTLQPGFPSRFSGSGSGRDYSLSITNLEPEDIATYYCLQYDNLLWTFGGGTKLEIK
15 nM	201 nM	6.2 nM	7.1 nM	0.00018 s⁻¹	880000 M⁻¹ s⁻¹	0.00021 s⁻¹	350000 M⁻¹ s⁻¹	0.2 nM	0.6 nM	12B10 antibody (antibody, IgG2a, V domains shown) VH: QVTLKESGPGILKPSQTLSLTCSFSGFSLSTSGMGVGWIRQPSGKGLEWLAHIWWNDEKYYNPSLKSQLTISKDTSRNQVFLKITSVDTADTATYYCARSYDGSPFPSWGQGTLVTVSA VL: DIQMTQSPSSLSASLGGKVTITCKASQDINKYIAWFQHKPGKGPRLLMAYPFTLQPGIPSRFSGNGSGRDYSFSISNLEPEDIATYYCLQYDNLLWTFGGGTRLEIK
